Assays:
[1] = target: MAdV-2.IXeGFP virus particle (replication competent MAdV-2 with enhanced green fluorescent protein fused to minor capsid protein IX) (mouse adenovirus 2 | not stated)
[2] = target: mouse adenovirus 2 (MAdV-2), wild type virus particle (mouse adenovirus 2)
[3] = target: MAdV-2.IXeGFP virus particle (replication competent MAdV-2 with enhanced green fluorescent protein fused to minor capsid protein IX) (mouse adenovirus 2 | not stated); remark: listed apart in the source

Row | Molecule | infection of CMT-93 cells by MAdV-2.IXeGFP pre-incubated with cryptdin 2 (dose-responsive over the indicated concentrations), relative to infection without defensin [1] | infection of CMT-93 cells by MAdV-2 pre-incubated with cryptdin 2 (dose-responsive over the indicated concentrations), relative to infection without defensin [2] | infection of CMT-93 cells by MAdV-2.IXeGFP pre-incubated with cryptdin 3 (indicated concentrations), relative to infection without defensin [3]
1 | Cryptdin 2 (peptide) | 2.4 fold | 1.8 fold | –
2 | LRDLVCYCRKRGCKRRERMNGTCRKGHLMYTLCCR [Cryptdin 3] | – | – | 1.7 fold

Source: paper PMC5489213
